Laboratory results from publication PMC7137382, “Structure of the Mycobacterium smegmatis α-maltose-1-phosphate synthase GlgM” (Acta Crystallographica. Section F, Structural Biology …, 2020).

Molecular target: the molecule itself
Experiment: SEC; Superdex 200 10/300 GL, 50 mM bis-Tris pH 6.0, 5 mM MgCl2, 100 mM NaCl

B1: α-maltose-1-phosphate synthase GlgM from Mycobacterium smegmatis (enzyme, Mycobacterium smegmatis mc2155)
chain: MRVAMMTREYPPEVYGGAGVHVTELVAQLRKLCDVDVHCMGAPRDGAYVAHPDPTLRGANAALTMLSADLNMVNNAEAATVVHSHTWYTGLAGHLASLLYGVPHVLTAHSLEPLRPWKAEQLGGGYQVSSWVERTAVEAADAVIAVSSGMRDDVLRTYPALDPDRVHVVRNGIDTTVWYPAEPGPDESVLAELGVDLNRPIVAFVGRITRQKGVAHLVAAAHRFAPDVQLVLCAGAPDTPQIAEEVSSAVQQLAQARTGVFWVREMLPTHKIREILSAATVFVCPSVYEPLGIVNLEAMACATAVVASDVGGIPEVVADGRTGLLVHYDANDTEAYEARLAEAVNSLVADPDRAREYGVAGRERCIEEFSWAHIAEQTLEIYRKVSA
notes: GlgM (glgM gene, MSMEG_5080) from M. smegmatis mc2155, synthesised with codon usage for E. coli; A TEV cleavage site lies between the N-terminal 6×His tag and the protein; also called M. smegmatis GlgM; source: E. coli BL21 Star, purified (HisTrap FF, imidazole gradient); not shown: 6×His, N-terminal, kept
stoichiometry N: 2
